According to patent US20250019427A1 (BYOMASS, published 2025):
Substitutions are numbered along the chain they refer to. Blank lines part the entries; values can stand above or below the binder they belong to.

What was measured:
Cyno GDF15 Fc = molecular target: T1, Cyno GDF15 Fc (cyno, UniProt G7PWZ3 193-308); experiment: Octet BLI, Fab monovalent
T1 construct: also called cyno GDF15-Fc fusion
T1 sequence: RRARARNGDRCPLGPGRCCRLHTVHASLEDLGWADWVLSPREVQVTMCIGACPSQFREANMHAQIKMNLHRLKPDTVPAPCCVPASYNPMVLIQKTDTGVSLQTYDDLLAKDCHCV

Mouse GDF15 Fc = molecular target: T2, Mouse GDF15 Fc (mouse, UniProt Q9Z0J7 189-303, limits assumed); experiment: Octet BLI, Fab monovalent
T2 construct: also called mouse GDF15Fc fusion
T2 sequence (looked up): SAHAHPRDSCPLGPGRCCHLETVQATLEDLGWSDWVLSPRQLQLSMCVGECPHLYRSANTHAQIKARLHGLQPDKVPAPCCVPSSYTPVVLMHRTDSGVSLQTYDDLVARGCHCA

GDF15 = molecular target: T3, GDF15 (Homo sapiens (Human), UniProt Q99988 30-308); experiment: cell-based or functional assay
T3 sequence: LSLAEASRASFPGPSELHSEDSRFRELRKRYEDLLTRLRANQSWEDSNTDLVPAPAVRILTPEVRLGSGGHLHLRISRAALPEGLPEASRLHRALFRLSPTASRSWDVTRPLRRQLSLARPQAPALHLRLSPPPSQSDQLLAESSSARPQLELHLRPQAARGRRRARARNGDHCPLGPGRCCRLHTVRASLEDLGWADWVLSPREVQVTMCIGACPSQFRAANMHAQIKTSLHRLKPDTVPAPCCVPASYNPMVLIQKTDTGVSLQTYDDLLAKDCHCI

GDF11 = molecular target: T4, GDF11 (UniProt O95390 299-407); experiment: Octet BLI, IgG on tip, avid
T4 construct: Also the GDF-11 ligand of the ActRIIB/SMAD reporter assay
T4 sequence (O95390 299-407 limits assumed): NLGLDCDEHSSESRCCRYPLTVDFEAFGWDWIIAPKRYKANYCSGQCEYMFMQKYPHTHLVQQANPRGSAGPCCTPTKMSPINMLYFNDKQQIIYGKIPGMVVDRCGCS

GDF8 = GDF8 (UniProt O14793 267-375); experiment: Octet BLI, IgG on tip, avid
Human BMP10 = molecular target: T5, Human BMP10 (human, UniProt O95393 317-424); experiment: Octet BLI, IgG on tip, avid
T5 sequence (looked up): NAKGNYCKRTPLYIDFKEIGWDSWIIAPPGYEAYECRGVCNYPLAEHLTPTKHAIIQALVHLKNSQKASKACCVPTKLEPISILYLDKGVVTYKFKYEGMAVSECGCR

GDF10 = molecular target: T6, GDF10 (UniProt P55107 369-478); experiment: Octet BLI, IgG on tip, avid
T6 sequence (looked up): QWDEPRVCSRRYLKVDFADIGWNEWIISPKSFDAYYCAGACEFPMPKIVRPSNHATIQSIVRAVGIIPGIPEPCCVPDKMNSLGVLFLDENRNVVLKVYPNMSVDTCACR

Human BMP9 = molecular target: T7, Human BMP9 (human, UniProt Q9UK05 320-429); experiment: Octet BLI, IgG on tip, avid
T7 sequence (looked up): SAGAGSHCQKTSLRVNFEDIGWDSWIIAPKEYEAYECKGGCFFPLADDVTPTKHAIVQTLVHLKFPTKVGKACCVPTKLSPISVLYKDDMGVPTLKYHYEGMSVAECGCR

Human Activin B = molecular target: T8, Human Activin B (human, UniProt P09529 293-407); experiment: Octet BLI, IgG on tip, avid
T8 construct: Also used for the Activin B ligand of the ActRIIB/SMAD reporter assay, where the species is not restated
T8 sequence (looked up): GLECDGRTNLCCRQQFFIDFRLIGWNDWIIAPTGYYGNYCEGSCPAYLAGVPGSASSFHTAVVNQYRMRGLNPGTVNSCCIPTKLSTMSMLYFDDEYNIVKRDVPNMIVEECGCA

Human Activin A Fc = molecular target: T9, Human Activin A Fc (human, UniProt P08476 311-426); experiment: Octet BLI, IgG on tip, avid
T9 sequence (looked up): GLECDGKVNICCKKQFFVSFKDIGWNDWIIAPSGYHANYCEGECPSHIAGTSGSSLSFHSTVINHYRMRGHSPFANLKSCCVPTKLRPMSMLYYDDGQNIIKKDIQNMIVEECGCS

GDNF = molecular target: T10, GDNF (UniProt P39905 78-211); experiment: Octet BLI, IgG on tip, avid
T10 sequence (looked up): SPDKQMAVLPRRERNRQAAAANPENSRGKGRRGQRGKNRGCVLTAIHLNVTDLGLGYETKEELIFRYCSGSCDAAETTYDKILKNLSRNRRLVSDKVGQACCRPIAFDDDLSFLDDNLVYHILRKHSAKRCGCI

B1: Clone C Fab (Fab, V domains shown)
VH: QVQLQESGPGLVKPSQTLSLTCTVSGGSISSGGYYWSWIRQHPGKGLEWIGAIVYSGHTYYNPSLKSRVTISVDTSKNQFSLKLSSVTAADTAVYYCARGVEYQHFSLWGQGTLVTVSS
VL: not shown
notes: Fab format; also called Fab of Clone C
Kd (Cyno GDF15 Fc): 0.36 nM
Kd (Mouse GDF15 Fc): 156 nM
GDF15 GFRAL RET pERK Fab IC50 pM (GDF15): 36.8 pM

B2: Clone D Fab (Fab, V domains shown)
VH: B1 VH with S30N, S37T, V54Y, H58S, Y60V, S107N, L108E
VL: not shown
notes: Fab format
Kd (Cyno GDF15 Fc): 0.562 nM
Kd (Mouse GDF15 Fc): 157 nM
GDF15 GFRAL RET pERK Fab IC50 pM (GDF15): 27 pM

B3: Clone F Fab (Fab, V domains shown)
VH: QVQLVQSGAEVKKPGSSVKVSCKASGGTFGGYAISWVRQAPGQGLEWMGGIIPPYATANYAQKFQGRVTITADESTSTAYMELSSLRSEDTAVYYCARGVGTTHLDVWGQGTMVTVSS
VL: not shown
notes: Fab format
Kd (Cyno GDF15 Fc): 0.553 nM
Kd (Mouse GDF15 Fc): 26.1 nM
GDF15 GFRAL RET pERK Fab IC50 pM (GDF15): 11.2 pM

B4: Clone H Fab (Fab, V domains shown)
VH: QVQLVQSGAEVKKPGSSVKVSCKASGGTFSSYYISWVRQAPGQGLEWMGGIAPISGTASYAQKFQGRVTITADESTSTAYMELSSLRSEDTAVYYCARGLAYDGYFDLWGRGTLVTVSS
VL: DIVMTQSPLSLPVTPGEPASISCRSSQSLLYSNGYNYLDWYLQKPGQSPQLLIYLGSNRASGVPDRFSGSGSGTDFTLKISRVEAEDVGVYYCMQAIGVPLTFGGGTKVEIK
notes: Fab format
Kd (Cyno GDF15 Fc): 1.42 nM
Kd (Mouse GDF15 Fc): 50.9 nM
GDF15 GFRAL RET pERK Fab IC50 pM (GDF15): 24.6 pM

B5: Clone M Fab (Fab, V domains shown)
VH: QVQLVQSGAEVKKPGASVKVSCKASGYTFDSYGINWVRQAPGQGLEWMGWISAYSGDTAYAQELQGRVTMTTDTSTSTAYMELRSLRSDDTAVYYCVRDTQYGGSPYWGQGTLVTVSS
VL: EIVMTQSPATLSVSPGERATLSCRASQSVSSNLAWYQQKPGQAPRLLIYGASTRATGIPARFSGSGSGTEFTLTISSLQSEDFAVYYCQQYNNWPITFGGGTKVEIK
notes: Fab format
Kd (Cyno GDF15 Fc): 1.91 nM
Kd (Mouse GDF15 Fc): 31.4 nM
GDF15 GFRAL RET pERK Fab IC50 pM (GDF15): 1370 pM

B7: Clone E Fab (Fab, V domains shown)
VH: QVQLVQSGAEVKKPGASVKVSCKASGYTFTSYGINWVRQAPGQGLEWMGWITAYSGDTNYAQKLQGRVTMTTDTSTSTAYMELRSLRSDDTAVYYCARGPGQYADVDVWGQGTMVTVSS
VL: DIQMTQSPSSVSASVGDRVTITCRASQGISSWLAWYQQKPGKAPKLLIYAASSLQSGVPSRFSGSGSGTDFTLTISSLQPEDFATYYCQQANSFPITFGGGTKVEIK
notes: Fab format
Kd (Cyno GDF15 Fc): 0.413 nM
Kd (Mouse GDF15 Fc): 3.08 nM
GDF15 GFRAL RET pERK Fab IC50 pM (GDF15): 46.7 pM

B10: Clone I Fab (Fab, V domains shown)
VH: B7 VH with S31D, Y32E, N59V
VL: B7 VL
notes: Fab format
Kd (Cyno GDF15 Fc): 1.38 nM
Kd (Mouse GDF15 Fc): 1.45 nM
GDF15 GFRAL RET pERK Fab IC50 pM (GDF15): 111 pM

B13: Clone K Fab (Fab, V domains shown)
VH: QVQLVQSGAEVKKPGASVKVSCKASGYTFTNEGISWVRQAPGQGLEWMGWISAYTADTFYAQKLQGRVTMTTDTSTSTAYMELRSLRSDDTAVYYCARTRHDTSGLRFDYWGQGTLVTVSS
VL: B7 VL with S30D, A91V, N92H
notes: Fab format
Kd (Cyno GDF15 Fc): 2.4 nM
Kd (Mouse GDF15 Fc): 333 nM
GDF15 GFRAL RET pERK Fab IC50 pM (GDF15): 169 pM

B15: Clone L Fab (Fab, V domains shown)
VH: B13 VH with T30A, N31S, E32Y, G33D, S35I, Y54L, T55S, A56G, F59V, L106I
VL: B7 VL with S30D, A91V, N92H
notes: Fab format
Kd (Cyno GDF15 Fc): 1.56 nM
Kd (Mouse GDF15 Fc): 229 nM
GDF15 GFRAL RET pERK Fab IC50 pM (GDF15): 2.1 µM

Second part, the binder after the results:

binding result (GDF11): no binding (tested: 100 nM)
binding result (GDF8): no binding (tested: 100 nM)
binding result (Human BMP10): no binding (tested: 100 nM)
binding result (GDF10): no binding (tested: 100 nM)
binding result (Human BMP9): no binding (tested: 100 nM)
binding result (Human Activin B): no binding (tested: 100 nM)
binding result (Human Activin A Fc): no binding (tested: 100 nM)
GDF15 - GFRAL RET pERK IC50 (pM) (GDF15): 30.3 pM
GDF15 - GFRAL-RET Luciferase IC50 (pM) (GDF15): 110 pM
B6: Clone J IgG (antibody, V domains shown)
VH: B7 VH with T52D, D57S
VL: DIQMTQSPSSVSASVGDRVTITCRASQGISSWLAWYQQKPGKAPKLLIYAASSLQSGVPSRFSGSGSGTDFTLTISSLQPEDFATYYCQQANSFPITFGGGTKVEIKR
notes: IgG format

binding result (GDF11): no binding (tested: 100 nM)
binding result (GDF8): no binding (tested: 100 nM)
binding result (Human BMP10): no binding (tested: 100 nM)
binding result (GDF10): no binding (tested: 100 nM)
binding result (Human BMP9): no binding (tested: 100 nM)
binding result (GDNF): no binding (tested: 100 nM)
binding result (Human Activin B): no binding (tested: 100 nM)
binding result (Human Activin A Fc): no binding (tested: 100 nM)
B8: Clone T IgG (antibody, V domains shown)
VH: B7 VH
VL: B6 VL with N92S, S93Q
notes: IgG format

binding result (GDF11): no binding (tested: 100 nM)
binding result (GDF8): no binding (tested: 100 nM)
binding result (Human BMP10): no binding (tested: 100 nM)
binding result (GDF10): no binding (tested: 100 nM)
binding result (Human BMP9): no binding (tested: 100 nM)
binding result (Human Activin B): no binding (tested: 100 nM)
binding result (Human Activin A Fc): no binding (tested: 100 nM)
GDF15 - GFRAL RET pERK IC50 (pM) (GDF15): 35.6 pM
B9: Clone P IgG (antibody, V domains shown)
VH: QVQLVQSGAEVKKPGATVKVSCKASGYTFDSYGIHWVRQAPGQGLEWMGWITAYSGDTVYAQKLQGRVTMTTDTSTSTAYMELRSLRSDDTAVYYCARESGQTSSALGPWGQGTLVTVSS
VL: B6 VL with S31R, A91G, N92A, I96L
notes: IgG format

Kd (Cyno GDF15 Fc): 0.369 nM
Kd (Mouse GDF15 Fc): 1.92 nM
B11: Clone T Fab (Fab, V domains shown)
VH: B7 VH
VL: B7 VL with N92S, S93Q
notes: Fab format

binding result (GDF11): no binding (tested: 100 nM)
binding result (GDF8): no binding (tested: 100 nM)
binding result (Human BMP10): no binding (tested: 100 nM)
binding result (GDF10): no binding (tested: 100 nM)
binding result (Human BMP9): no binding (tested: 100 nM)
binding result (GDNF): no binding (tested: 100 nM)
binding result (Human Activin B): no binding (tested: 100 nM)
binding result (Human Activin A Fc): no binding (tested: 100 nM)
B12: Clone S IgG (antibody, V domains shown)
VH: B7 VH
VL: B6 VL with M4L, S31P
notes: IgG format

Kd (Cyno GDF15 Fc): 0.277 nM
Kd (Mouse GDF15 Fc): 11.6 nM
B14: Clone O Fab (Fab, V domains shown)
VH: B9 VH with Y32L, I34M, H35S, W50Y, T52S, A53T, T103Q, S104V, G108D
VL: B7 VL with S31R, A91G, N92A, I96L
notes: Fab format
